These results are taken from patent US7871610B2, “Antibodies to Tie1 ectodomain” (Dyax Corp., priority 2003, dated 2011).

For this assay, the target named is Tie1 (Homo sapiens, UniProt P35590). Briefly: Immunohistochemistry of matched human tumor and normal tissue sections. Details: from tissue; host or cells: fresh frozen normal and tumor tissue (e.g. lung, kidney, skin, breast). As to conditions: fresh frozen tissue. The protocol:
The Tie-1 antibodies were biotinylated using the EZ-link Sulfo-NHS-SS-Biotin (Pierce, Cat. 21331). For Tie-1/Fc and Tie-1-His, the reaction was performed for 2 hours on ice in 50 mM sodium carbonate buffer, pH 9.6, in the presence of a 5-fold molar excess of biotinylating agent. For the antibodies, the reaction was performed for 2 hours on ice in PBS, in the presence of a 15-fold molar excess of EZ-link Sulfo-NHS-SS-Biotin. The reaction was stopped by the addition of Tris-HCl, pH 7.5 (50 mM final concentration) followed by a 1-hour incubation on ice. Samples were then dialyzed against PBS.
Various normal and tumor tissue sections were stained with biotinylated antibodies. A mouse monoclonal anti-Tie1 antibody (7e8) (Alitalo laboratory, University of Helsinki) was used as a positive control. Sections without primary antibody served as negative control. All samples were fresh frozen tissues and staining was performed with the TSA-kit (Perkin-Elmer Life Sciences). After acetone fixation (10-20 min, −20° C.) the slides were treated with 0.73% H2O2 for 10 min to reduce endogenous peroxidase activity followed by blocking for 30 min with TNB buffer. Sections ([…] thick) were incubated with primary antibodies (10 μg/ml) overnight at 4° C. Sections with the mouse monoclonal anti-tie1 antibody (7e8) were treated with biotinylated anti-mouse antibodies (VectaStain) before the addition of streptavidin-HRP. Signal was amplified by using a TSA kit and the visualized by AEC (235 ml NaAc, 15 ml AEC (stock solution: 1600 mg 3-amino-9-ethyl-carbazole and 480 ml N-dimethylformamide), 250 μl H2O2).

Tie1, sequence (P35590 22-1138): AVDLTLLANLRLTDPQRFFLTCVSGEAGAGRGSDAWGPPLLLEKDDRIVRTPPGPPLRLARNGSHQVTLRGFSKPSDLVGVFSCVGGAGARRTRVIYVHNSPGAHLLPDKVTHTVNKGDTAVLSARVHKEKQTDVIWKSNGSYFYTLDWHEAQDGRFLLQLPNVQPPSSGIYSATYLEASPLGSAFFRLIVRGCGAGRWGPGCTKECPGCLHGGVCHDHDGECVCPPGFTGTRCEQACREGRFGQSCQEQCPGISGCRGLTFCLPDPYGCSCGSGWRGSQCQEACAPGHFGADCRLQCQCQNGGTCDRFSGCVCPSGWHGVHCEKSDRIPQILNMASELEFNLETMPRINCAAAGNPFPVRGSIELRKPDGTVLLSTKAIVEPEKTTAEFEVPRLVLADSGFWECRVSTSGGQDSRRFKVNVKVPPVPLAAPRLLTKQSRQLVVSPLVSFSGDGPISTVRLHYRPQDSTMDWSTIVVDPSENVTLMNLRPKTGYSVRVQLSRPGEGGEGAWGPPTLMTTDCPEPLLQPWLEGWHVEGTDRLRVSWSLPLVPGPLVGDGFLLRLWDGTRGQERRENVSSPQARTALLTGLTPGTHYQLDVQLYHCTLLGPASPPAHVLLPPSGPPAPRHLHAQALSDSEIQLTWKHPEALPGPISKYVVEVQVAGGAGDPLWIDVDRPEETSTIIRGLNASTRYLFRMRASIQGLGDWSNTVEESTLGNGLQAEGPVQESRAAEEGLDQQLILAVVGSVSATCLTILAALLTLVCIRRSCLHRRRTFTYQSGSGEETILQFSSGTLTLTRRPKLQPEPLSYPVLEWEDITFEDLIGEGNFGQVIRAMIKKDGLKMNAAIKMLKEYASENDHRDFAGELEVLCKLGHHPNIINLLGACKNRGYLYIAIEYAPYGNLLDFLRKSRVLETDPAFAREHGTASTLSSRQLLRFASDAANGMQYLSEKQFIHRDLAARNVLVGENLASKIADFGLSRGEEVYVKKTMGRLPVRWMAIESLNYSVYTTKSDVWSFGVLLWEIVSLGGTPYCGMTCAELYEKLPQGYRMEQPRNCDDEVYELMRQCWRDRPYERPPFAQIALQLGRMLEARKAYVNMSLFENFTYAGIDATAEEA

B1: E3: human anti-Tie1 antibody from Fab phage library; HC SEQ ID NO:114, LC SEQ ID NO:116 (antibody, V domains shown)
VH: EVQLLESGGGLVQPGGSLRLSCAASGFTFSMYGMVWVRQAPGKGLEWVSVISPSGGNTGYADSVKGRFTISRDNSKNTLYLQVNSLRAEDTAVYYCARAPRGYSYGYYYWGQGTLVTVSSASTKGPSVFPLAPSSKSTSGG
VL: DIQMTQSPLSLSASVGDRVTITCRASQGIGHYLAWYQQKPGKVPKLLIYTASTLQSGVPSRFSGSGSGTDFTLTINSLQPEDVATYYCQQFNSYPHTFGQGTRLDIK
modifications: Synthetically generated peptide
On to B1, for which, under “10 μg/ml”, the “staining of breast carcinoma” value is listed as “stained also other structures in addition to vessels”, the “staining of hypernephroma tissue” value was “clear staining”, the staining of kidney result was “stained kidney tubules in addition to the vessels” and the “staining of lung carcinoma” value was “stained structures other than vessels”. In addition, for the setting “10 μg/ml”, the “staining of melanoma tissue” value is “also stained other surrounding structures”; the “staining of normal lung (large veins)” value is “stained especially clearly the large veins”; the “staining of normal skin” value was “stained blood vessels very faintly”; the “staining of veins and capillaries of mammary tissue (breast)” value is “brightest staining”. In addition, the “staining of vessels in normal tissues (tissue specificity)” value (biotinylated IgG 10 μg/ml) was “stained vessels in the lung and kidney but not in the skin”.
